In patent publication USRE50631E1, “ROR1 antibody immunoconjugates” (VelosBio Inc., priority 2017, dated 2025):

B1: D10: a lower affinity antibody that binds the same epitope as Ab1 (antibody, V domains shown)
VH: QVQLKESGPGLVAPSQTLSITCTVSGFSLTSYGVHWVRQPPGKGLEWLGVIWAGGFTNYNSALKSRLSISKDNSKSQVLLKMTSLQTDDTAMYYCARRGSSYSMDYWGQGTSVIVSS
VL: EIVLSQSPAITAASLGQKVTITCSASSNVSYIHWYQQRSGTSPRPWIYEISKLASGVPVRFSGSGSGTSYSLTISSMEAEDAAIYYCQQWNYPLITFGSGTKLEIQ
B2: ADC-S: D10 conjugated via MAL-VC-PAB to MMAE (conjugate)
VH: B1 VH
VL: B1 VL

Key:
ROR1 on Jeko-1 cells = molecular target: T1, ROR1 on Jeko-1 cells (Homo sapiens, UniProt Q01973); assay: Binding to ROR1-positive Jeko-1 cells (flow cytometry receptor binding assay); details: 20 minutes on ice, PE secondary antibody
T1 construct: The Jeko-1 cell line, from mantle cell lymphoma, is a suspension cell line; host or cells: Jeko-1 (human mantle cell lymphoma)
Experimental: The binding to tumor cells by antibodies Ab1 and 4A5, as well as ADC constructs derived from those antibodies (ADC-A and ADC-T), was evaluated. First, the binding of Ab1 to two ROR1-positive human tumor cell lines representing different cancer types was tested. The Jeko-1 cell line, from mantle cell lymphoma, is a suspension cell line, while the MDA-MB-231 cell line, from triple negative breast cancer, is an adherent cell line. The cell lines have different levels of ROR1 expression, with Jeko-1 cells displaying about 13507 cell surface copies and the MDA-MB-231 cells displaying about 21015 cell surface copies. The Jeko-1 (ATCC Cat. No. CRL-3006) and MDA-MB-231 (ATCC Cat. No. […]) cell lines were purchased from the American Type Culture Collection and were maintained according to the ATCC recommendations.
Jeko-1 cells (FIG. 2A) or MDA-MB-231 cells (FIG. 2B) were incubated with 0, 1, 10, 100, or 1000 ng/mL of Ab1 for 20 minutes on ice. After washing off unbound antibody, the cells were incubated with secondary anti-human IgG antibody labeled with phycoerythrin (PE) for an additional 20 minutes. The amount of PE fluorescence was measured using the BDFACS Verse analyzer and FlowJo V10 software. The PE signal for the highest concentration was used as the maximal binding signal to calculate the % maximal binding. EC50 was calculated using GraphPad Prism 7. […]

Mino = assay: Cytotoxicity in vitro (CellTiter-Glo viability), Mino; format: cell-based, human; details: Mino (MCL), 72 hours
Experimental: Cells were cultured in log phase growth and distributed into 96-well plates. Each cell line was plated at a slightly different cell density, ranging from 5×10^3 to 50×10^4 cells/well. Cells in duplicate were incubated with 3-fold serial dilution of a particular immunoconjugate (10, 3.33, 1.11, 0.37, 0.12, 0.041, 0.014, and 0.0045 μM) for 72 hours at 37° C. and 5% CO2. After treatment, cells were incubated with an equal volume of CellTiter-Glo® reagent (Promega Inc.) for 15 minutes at room temperature and viability was determined by a luminometer. Curves and EC50 values were generated in GraphPad Prism using a sigmoidal dose response non-linear regression fit.
Cells were grown and distributed into 96-well plates as described in Example 5. Cells in duplicate were incubated with 3-fold serial dilution of a particular immunoconjugate (660, 220, 73.3, 24.4, 8.14, 2.71, 0.91, and 0.3 nM) for 72 hours at 37° C. and 5% CO2. In some experiments, cells were incubated with an immunoconjugate for 96 hours instead of 72 hours (values highlighted with “*”). After treatment, cell viability was determined as described in Example 5.

Jeko-1 MCL xenograft = assay: Jeko-1 human MCL xenograft model (study 7); format: in vivo, mouse; details: 1 mg/kg ADC-N, ADC-P, ADC-R; 5 mg/kg ADC-A, ADC-L, ADC-M, ADC-S, ADC-T; IV Q4D
Experimental: Jeko-1 (MCL) cells were engrafted subcutaneously into mice. When tumor size reached 100 mm^3, the mice were randomized into nine groups, 9 mice/group. The groups were vehicle control; 1 mg/kg ADC-N, ADC-P or ADC-R; or 5 mg/kg ADC-A, ADC-L, ADC-M, ADC-S, or ADC-T. The mice were dosed IV q4d.

T1 sequence (Q01973 30-937): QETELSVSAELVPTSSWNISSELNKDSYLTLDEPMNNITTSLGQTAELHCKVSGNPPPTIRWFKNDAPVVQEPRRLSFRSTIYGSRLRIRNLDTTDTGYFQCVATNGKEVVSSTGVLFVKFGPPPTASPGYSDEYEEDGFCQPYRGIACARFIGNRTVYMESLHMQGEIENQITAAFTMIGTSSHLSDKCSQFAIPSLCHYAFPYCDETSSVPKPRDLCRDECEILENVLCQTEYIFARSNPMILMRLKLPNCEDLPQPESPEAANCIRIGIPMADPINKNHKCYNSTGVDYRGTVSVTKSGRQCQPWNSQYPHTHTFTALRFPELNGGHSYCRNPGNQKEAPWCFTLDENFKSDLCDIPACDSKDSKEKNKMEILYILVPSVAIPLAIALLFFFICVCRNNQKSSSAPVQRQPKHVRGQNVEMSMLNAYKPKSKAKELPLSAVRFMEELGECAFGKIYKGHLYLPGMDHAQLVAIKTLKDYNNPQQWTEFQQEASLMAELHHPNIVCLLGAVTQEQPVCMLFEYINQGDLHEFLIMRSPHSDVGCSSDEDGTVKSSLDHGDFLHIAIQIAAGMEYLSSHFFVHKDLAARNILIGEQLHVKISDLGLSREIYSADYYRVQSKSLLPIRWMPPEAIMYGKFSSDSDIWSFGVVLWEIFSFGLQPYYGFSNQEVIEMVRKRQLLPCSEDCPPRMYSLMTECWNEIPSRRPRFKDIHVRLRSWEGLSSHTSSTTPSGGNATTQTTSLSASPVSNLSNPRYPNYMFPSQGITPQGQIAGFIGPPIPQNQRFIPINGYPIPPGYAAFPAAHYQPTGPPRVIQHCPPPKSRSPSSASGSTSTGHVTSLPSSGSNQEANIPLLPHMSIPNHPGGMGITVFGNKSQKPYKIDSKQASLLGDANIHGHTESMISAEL

Molecule | EC50 of binding to cells (ROR1 on Jeko-1 cells) | EC50 (Mino) | tumor growth / average tumor size (interim results, day 14) (Jeko-1 MCL xenograft)
B1 | 0.25 µg/mL | – | –
B2 | 0.15 µg/mL | 83.3 nM | Significant tumor regression
